Data on 41 sequences can be found in the nanobody polyreactivity screen of Harvey et al. (2022).

The data set in a line: yeast display, Sf9 membrane polyspecificity reagent, FACS + sequencing; frameworks hold sequencing errors. The method in brief:
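Polyreactivity labels are assigned by the sorting gate from which each nanobody was recovered. The gates were low and high (top ~1%), set on anti-HA fluorescence for expression and streptavidin fluorescence for reagent binding. Before sorting, galactose-induced (36–48 hours) yeast display cells were stained for 1 hour at 4 °C with 10% biotinylated, detergent-solubilized Sf9 membrane reagent.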
Regarding “QVQLVESGGGLVQAGGSLRLSCAASGVTFAHNAMGWYRQAPGKERELVAAITRSGGSTYYADSVKGRFTISRDNAKNTVYLQMNSLKPEDTAVYYCIAGRRGSGYGYWGQGTQVTVSS”, the “polyreactivity (PSR sort gate)” value was “high polyreactivity”. Under “QVQLVESGGGLVQAGGSLRLSCAASGVTFYAYAMAWYRQAPGKERELVAVISQSGTRTYYADSVKGRFTISRDNAKNTVYLQMNSLKPEDTAVYYCAAPKAQLQPYYYWGQGTQVTVSS” stands “high polyreactivity”; under “QVQLVESGGGLVQAGGSLRLSCAASGYAMGWYRQAPGKERELGAAITSGGSTNYADSVKGRFTISRDNAKNTVYLQMNSVKPEDTAVYYCAAAYSLYGHRYDYWGQGTQVTVSS”, “low polyreactivity”. Under “QVQLVESGGGLVQAGGSLRLSCAASGYAMGWYRQAPGKERELVAAISWSGDITYADSVKGRFTISRDNAKNTVYLQMNRLKPEDTAVYYCNADRYTGRDGEQSLDYWGQGTQVTVSS” stands “low polyreactivity”; under “QVQLVESGGGLVQAGGSLRLSCAASGYIFALNAMGWYRQAPGKERELVASITGAGSTNYADSVKGRFTISRDNAKNTVYLQMNSLKPEDTAVYYCAKRTRRRGYYYWGQGTQVTVSS”, “high polyreactivity”.

For “QVQLVESGGGLVQAGGSLRLSCAASGYIFARYAMGWYRQAPGKERELVASISRRGTSTYYADSVKGRFTISRDNAKNTDYLQMNSLKPEDTAVYYCNKEYYIYRTGTIGERSDMGYWGQGTQVTVSS”, the “polyreactivity (PSR sort gate)” value was “high polyreactivity”.

For the sequence “QVQLVESGGGLVQAGGSLRLSCAASGYIFAYYAMGWYRQAPGKERELVATIRSGGSTNYADSVKGRFTISRDNAKNTGYLQMNILKPEDTAVYYCARDDATACDYWGQGSQVTVSS”, the “polyreactivity (PSR sort gate)” value is “low polyreactivity”.

Take “QVQLVESGGGLVQAGGSLRLSCAASGYIFDGNAMGLYRQAPGKERELVASISSGTSTYYADSVKGRFTISRDNAKNTVYLQMNSLKPEATAVYYCNAGVEFAASLYYSDNYDYWGQGTQVTVSS”: the “polyreactivity (PSR sort gate)” value was “low polyreactivity”.

“QVQLVESGGGLVQAGGSLRLSCAASGYIFDRYAMGWYRQAPGKERELVAAISGRGGSTYYADSVKGRFTISRDNAKNTVYLQMNSLKPEDTAVYYCARDVYVRIGQRARYDSWGQGTQVTVSS”: the “polyreactivity (PSR sort gate)” value is listed as “high polyreactivity”. Under “QVQLVESGGGLVQAGGSLRLSCAASGYIFDRYAMGWYRQAPGKERELVAAITNGGRTYYADSVKGRFTISRDNAKNTVYLQMNSLKPEDTAVYYCAAVVYSRGYYWGQGTQVTVSS” stands “high polyreactivity”.

With “QVQLVESGGGLVQAGGSLRLSCAASGYIFDSNVMGWYRQAPGKERELVARIRWSGGSTYYADSVKGRFTISRDNAKNTVYLQMNSLKPEDTAVYYCNVVSYYIAGGWYEGDYWGQGTQVTVSS”, the “polyreactivity (PSR sort gate)” value was “low polyreactivity”. For “QVQLVESGGGLVQAGGSLRLSCAASGYIFDVNTMGWYRQAPGKERELVAVIRRGGSTTYADSVKGRFTISRDNAKNTVYLQMNSLKPEDTAVYYCNARVTLGRPLFTYLVRYEYWGQGTQVTVSS”, the “polyreactivity (PSR sort gate)” value was “high polyreactivity”.

In the case of “QVQLVESGGGLVQAGGSLRLSCAASGYIFDYYAMGWYRQAPGKESELVAAISSSGGTTYYADSVKGRFTISRDNAKNTFYLQMNSLKPEDTAVYYCAARKSRWHRGYYYWGQGTQVTVSS”, the “polyreactivity (PSR sort gate)” value is on record as “high polyreactivity”. On to “QVQLVESGGGLVQAGGSLRLSCAASGYIFEYYAMGWYRQAPGKDRELVAAISWSGGSTYYADSVKGRFTISRDNAKNTVYLQMNSLKPEDTAVYYCAAESYLPYWDSYYRYDYWGQGTQVTVSS”, for which the “polyreactivity (PSR sort gate)” value is “low polyreactivity”.

Consider “QVQLVESGGGLVQAGGSLRLSCAASGYIFFFNAMAWYRQAPGKERELVAAITRRGVSTYYADSVKGRFTISRDNAKNTVYLQMNSLKPEDTAVYYCATEHNHLGYYYWGQGTQVTVSS”, for which the “polyreactivity (PSR sort gate)” value is reported as “low polyreactivity”. Turning to “QVQLVESGGGLVQAGGSLRLSCAASGYIFGGYAMGWNRQAHGKERELVAGISIGVGSTYYADSVKGRFTISRDKAKNTVNLQMNSLKPEDTAVYYCNRDSVGYDYWGQGTQVTVSS”, the “polyreactivity (PSR sort gate)” value is “low polyreactivity”.

In the case of “QVQLVESGGGLVQAGGSLRLSCAASGYIFGQNHMGWYRQAPGKERELVAAISSDGSTYYADSVKGRFTISRDNAKNTVYLQMNSLKQEDTAVYYCKYYHQRFPYRQVYYWGQGTQVTVSS”, the “polyreactivity (PSR sort gate)” value was “low polyreactivity”. Under “QVQLVESGGGLVQAGGSLRLSCAASGYIFGQYAMGWYRQAPGKERELVADITRGGDTYYADSVKGRFTISRDNAKNTVYLQMNSLKPEDTAVYYCAADSFYWAWQYDYWGQGTQVTVSS” stands “high polyreactivity”; under “QVQLVESGGGLVQAGGSLRLSCAASGYIFGSYAMGWYRQAPGKERELVASITRVDSTNYADSVKGRFTISRDNAKNTVYLQMNSLKAEDTAVYYCAADITTPAYATYDYWGQGTQVTVSS”, “low polyreactivity”; under “QVQLVESGGGLVQAGGSLRLSCAASGYIFGSYTMGWYRQAPAKERELVAGISRRGGGTYYADSVKGRFTISRDNAKNTVYLQMNSLKPEDTAVYYCAAEVITIGLYRYGYWGQGTQVTVSS”, “high polyreactivity”. In the case of “QVQLVESGGGLVQAGGSLRLSCAASGYIFGVYAMGWYRQAPGKERELVAAISYGVGSTYYADSVKVRFTISRDNAKNTVYFQMNSLKPEDTAVYYCAADVFFYVYEAYLLYYWGQGSQVTVSS”, the “polyreactivity (PSR sort gate)” value is listed as “low polyreactivity”. Under “QVQLVESGGGLVQAGGSLRLSCAASGYIFGWYAMGWYRQAPGKERELVATIDWSGDSTYYADSVKGRFTISRDNAKNTVYLQMNSLKPEDTAVYYCAVGYSYYPSDEFDYWGQGTQVTVSS” stands “low polyreactivity”; under “QVQLVESGGGLVQAGGSLRLSCAASGYIFIGYAMGWYRQAPGKERELVTYADSVKGRFTISRDNAKNTVYFQMNSRKPEDTAVYYCNKVPRRFSGLDENYWGQGTQVTVSS”, “low polyreactivity”; under “QVQLVESGGGLVQAGGSLRLSCAASGYIFKYNAMGWYIQAPGKERELVAAISGRGGSTYYADSVKGRFTISRDNAKNTVYLQMNSLKPEDTAVYYCNADYQARRYNYWGQGTQVTVSS”, “high polyreactivity”. With “QVQLVESGGGLVQAGGSLRLSCAASGYIFKYYAMGWYRQAPGKERELVAAISRSGGSTYYADSVKGRFTISRDNAKNTVYLQMNSLNPEDTAVYYCAADSYYYQGYRRYNYDYWGQGTQVTVSS”, the “polyreactivity (PSR sort gate)” value is “high polyreactivity”. For the sequence “QVQLVESGGGLVQAGGSLRLSCAASGYIFLGNAMGWYRQAPGKERELVAAISRSGGSTYYADSVKGRFTISRDNAQNTVYLQMNSLKPEDTAVYYCNRDRQKIGYTYKYDYWGQGTQVTVSS”, the “polyreactivity (PSR sort gate)” value is given as “high polyreactivity”. Take “QVQLVESGGGLVQAGGSLRLSCAASGYIFNLNAMGWYRQAPGKERELVAAITRSGGSTYYADSVKGRFTISRDNAKNTVYLQMNSQKPEDTAVYYCAARGPYYRPWYKYDYWGQGTQVTVSS”: the “polyreactivity (PSR sort gate)” value was “high polyreactivity”. Under “QVQLVESGGGLVQAGGSLRLSCAASGYIFPGNAMGWYRQAPGKERELVATISGSAGSTSYADSVKGRFTISRDNAKNTVYLQMNSLKPEDTAVYYCNKAYSYSWGDLDYWGQGTQVTVSS” stands “high polyreactivity”; under “QVQLVESGGGLVQAGGSLRLSCAASGYIFPGNAMGWYRQAPGKERELVATITDDTSTNYADSVKGRFTISRDNAKNTVYLQMNSLKPEDTAVYYCAADLYYWYPYLYDYWGQGTQVTVSS”, “low polyreactivity”; under “QVQLVESGGGLVQAGGSLRLSCAASGYIFPSYAMGWYRQAPGKERELVAAISESGGSTNYSDSVKGRFTISRDYAKNTVYLQLNSLKPEDTAVYYCAAGYYTVPPDMNSWGQGTQVTVSS”, “low polyreactivity”. Under “QVQLVESGGGLVQAGGSLRLSCAASGYIFPTNAMGWYRPATRKERELLAVITSGGSTYYADSVKGRFTISRDNAKNTVYLLMNSLKPDDTAVYYCAARYQGRYGIYRVLYGYWGQGTQVTVSS” stands “high polyreactivity”; under “QVQLVESGGGLVQAGGSLRLSCAASGYIFQWYDMGWYRQAPGKERELVAAISVTTGSTYYADSVKGRFTISRDNAKNTVYLQMNSLKPEDTAVYYCAAVSWYRHDMYYWGQGTQVTVSS”, “low polyreactivity”; under “QVQLVESGGGLVQAGGSLRLSCAASGYIFQYYPMGWYRQAPGKERELVAAITSGTRTYYADSVKGRFTISRDNAKNTVYLQMNSLKPDDTAGYYCAASPDYSRYWVYAPTRRLGYWGQGTQVTVSS”, “high polyreactivity”. Under “QVQLVESGGGLVQAGGSLRLSCAASGYIFRSNAMGWYRQAPGKERELVAAISGGGRTNYADSVKGRFTISRDNAKNTVYLQMNSLKPEDTAVYYCAAGGYYQRTRGYWGQATQVTVSS” stands “high polyreactivity”; under “QVQLVESGGGLVQAGGSLRLSCAASGYIFSKYALGWYRQAPGKERELVASITGRGSRTYYADSVKGRFTISRDNAKNTVYLQMNSLKAEDTAVYYCAADWYGQKTSNRWYFRPGYVYWGQGTQVTVSS”, “high polyreactivity”. On to “QVQLVESGGGLVQAGGSLRLSCAASGYIFSLYAMGWYRQAPGKERELLADITTSAGSTYYADSVKGRFTISRDNAKNTVYLQMISLKPEDTAVYYCAAAVYGHSYYDYDYWGLGTQVTVSS”, for which the “polyreactivity (PSR sort gate)” value is reported as “low polyreactivity”. Under “QVQLVESGGGLVQAGGSLRLSCAASGYIFSLYGMGWYRQAPGKERELVAAITGSGGGTYADSVKGRFTISRDNAQNTVYLQMKSLKPEDTAVYYCAAGGYRRRFWPIYDYWGQGTQVTVSS” stands “low polyreactivity”. Under “QVQLVESGGGLVQAGGSLRLSCAASGYIFSRNDRGWYRQAPGKERELVARITGSAGSTYYADSVKGRFTISRDNAKNTVYLQMNSLKPEDTAVYYCARRWYTWRKNKYCRMDYWGQGTQVTVSS” stands “low polyreactivity”; under “QVQLVESGGGLVQAGGSLRLSCAASGYIFSSYAMGWYRQAPGKERELVAAISWTGGTYYADSVKGRFTISRDNAKNTVYLQMNSLNPEDTAVYYCAVRYKRKGSGYRTNAYDYWGQGTQVTVSS”, “high polyreactivity”; under “QVQLVESGGGLVQAGGSLRLSCAASGYIFSTYDMGWYRQAPGKERELVATISSSGGSTYYADSVKGRFTISRDIAKNTVYLQMNSLKPEDTAVYYCAADLYLYQYRYEYDYWGQGTQVTVSS”, “high polyreactivity”.

As to “QVQLVESGGGLVQAGGSLRLSCAASGYIFSTYTMGWYRQAPGKERELVATITVSGGSTYYADSVKGRFTISRDNAKNTVYLQMNSLKPEDTAVYYCAALRYTFAGRFDYWGQGTQVTVSS”, the “polyreactivity (PSR sort gate)” value was “high polyreactivity”.
